Consider 11 compounds from PMC7406630, “A new ^68Ga-labeled somatostatin analog containing two iodo-amino acids for dual somatostatin receptor subtype 2 and 5 targeting” (EJNMMI Research, 2020).

Read-outs that look alike come from different tables or passages of the source.

For orientation: IC50 means the concentration needed to halve the response being measured. What is called EC50 is the midpoint of the concentration-response curve. What is called tissue uptake is the share of the injected amount in each gram of the tissue.

Data set [1] deals with SST5. Details: method as in PMID 10774879. Conditions: cited from earlier work.
In another data set the test system is SST2. Details: method as in PMID 10774879. The note with it: cited from earlier work.
In data set [2] the target is T1, human SST2 (Homo sapiens, UniProt P30874).
T1 construct: expressed in transfected cells; host or cells: HEK293 (HEK-SST2)
Nature of the data set: Competition binding assay on HEK-SST2 cells with ^125I-labeled SS-14. The note with it: read-out: SST2 IC50, nM (95% CI), ^125I-SS-14 radioligand, 3 to 5 sessions in duplicate. The protocol: (§1) Human Embryonic Kidney (HEK293) cells (a kind gift from Dr. A. Mühlethaler-Mottet, Pediatric Hematology-Oncology Unit, Lausanne University Hospital, Switzerland) were stably transfected with plasmids encoding the human SST2 and SST5 (HEK-SST2 and HEK-SST5) and cultivated as previously described. Non-transfected HEK cells were used as a negative control.
(§2) Binding assays were performed as described previously.

For data set [3], the target named is T1, human SST2. Kind of data set: cAMP accumulation experiments on HEK-SST2 cells (agonistic potency). The format is cell-based. The note with it: for EC50: read-out: SST2 EC50, nM (95% CI), cAMP, HEK-SST2 cells, 3 to 4 sessions in duplicate. Background: Cyclic AMP is a second messenger, typically raised through Gs and lowered through Gi signalling.
Protocol: (§3) Human Embryonic Kidney (HEK293) cells (a kind gift from Dr. A. Mühlethaler-Mottet, Pediatric Hematology-Oncology Unit, Lausanne University Hospital, Switzerland) were stably transfected with plasmids encoding the human SST2 and SST5 (HEK-SST2 and HEK-SST5) and cultivated as previously described [25]. Non-transfected HEK cells were used as a negative control.
(§4) cAMP accumulation experiments on HEK-SST2 and HEK-SST5 cells were performed with cAMP direct immunoassay kit (colorimetric, K371, BioVision) as described previously [25].
Data set [4] has as its target T2, human SST5 (Homo sapiens, UniProt P35346).
T2 construct: expressed in transfected cells; host or cells: HEK293 (HEK-SST5)
Nature of the data set: cAMP accumulation experiments on HEK-SST5 cells (agonistic potency). It counts as cell-based. Conditions: read-out: SST5 EC50, nM (95% CI), 3 to 4 sessions in duplicate.
Protocol: as §3, §4

Data set [5] has as its system SST5. Details: method as in PMID 25918675. Conditions: cited from earlier work.
Data set [6] is classed as physicochemical. Conditions: pH 7.4. The protocol: To a pre-saturated mixture of 500 μL n-octanol and 500 μL of phosphate-buffered saline (PBS) at pH 7.4, 10 μL of 1 μM of ^67Ga-labeled conjugates was added. The solutions were vortexed for 1 h to reach equilibrium and then centrifuged (3000 rpm) for 10 min. From each phase, 100 μL was removed and measured in a γ-counter. The partition coefficient was calculated as the average of the logarithmic values (n = 3) of the ratio between the radioactivity in the organic and the PBS phase.

The conditions of data set [7]: in vivo; cited from earlier work.
Data set [8] can be described thus: in vivo. Conditions: female, mouse, 100 pmol, total radioactivity.
The nature of data set [9]: in vivo. Conditions: female, mouse, 100 pmol, total radioactivity. This is another data set of the same source.
Data set [10] concerns the target T2, human SST5. Nature of the data set: Competition binding assay on HEK-SST5 cells with ^125I-labeled SS-14. Conditions: read-out: SST5 IC50, nM (95% CI), ^125I-SS-14 radioligand, 3 to 5 sessions in duplicate. The protocol: as §1, §2
Setting [11] is: athymic Nude-Foxn1^nu/Foxn1^+, Intestine uptake.
Where [12] appears, read: athymic Nude-Foxn1^nu/Foxn1^+, Liver uptake.
Where [13] appears, read: athymic Nude-Foxn1nu/Foxn1+, Pancreas uptake.
Setting [14] is: athymic Nude-Foxn1^nu/Foxn1^+, Adrenal uptake.
[15] abbreviates: athymic Nude-Foxn1^nu/Foxn1^+, Blood uptake.
The mark [16] stands for this setting: athymic Nude-Foxn1^nu/Foxn1^+, Femur uptake.
[17] abbreviates: athymic Nude-Foxn1^nu/Foxn1^+, Heart uptake.
Where [18] appears, read: athymic Nude-Foxn1^nu/Foxn1^+, Kidney uptake.
[19] abbreviates: athymic Nude-Foxn1^nu/Foxn1^+, Lung uptake.
Where [20] appears, read: athymic Nude-Foxn1^nu/Foxn1^+, Muscle uptake.
Where [21] appears, read: athymic Nude-Foxn1^nu/Foxn1^+, Pancreas uptake.
The mark [22] stands for this setting: athymic Nude-Foxn1^nu/Foxn1^+, Pituitary uptake.
The mark [23] stands for this setting: athymic Nude-Foxn1^nu/Foxn1^+, SST2 tumor uptake.
The mark [24] stands for this setting: athymic Nude-Foxn1^nu/Foxn1^+, SST5 tumor uptake.
The mark [25] stands for this setting: athymic Nude-Foxn1^nu/Foxn1^+, Stomach uptake.
The mark [26] stands for this setting: athymic Nude-Foxn1nu/Foxn1+, Spleen uptake.

T2 sequence (P35346 whole entry): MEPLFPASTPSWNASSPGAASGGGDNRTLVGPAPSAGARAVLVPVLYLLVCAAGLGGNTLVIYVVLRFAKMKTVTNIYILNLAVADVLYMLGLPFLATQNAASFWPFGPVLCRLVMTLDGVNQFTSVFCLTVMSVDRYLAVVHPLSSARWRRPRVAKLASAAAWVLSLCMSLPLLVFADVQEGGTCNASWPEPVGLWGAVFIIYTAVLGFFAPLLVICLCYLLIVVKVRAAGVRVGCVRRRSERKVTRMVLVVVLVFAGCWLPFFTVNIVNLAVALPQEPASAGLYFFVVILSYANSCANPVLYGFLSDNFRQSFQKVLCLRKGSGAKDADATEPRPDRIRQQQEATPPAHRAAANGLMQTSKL
T1 sequence (P30874 whole entry): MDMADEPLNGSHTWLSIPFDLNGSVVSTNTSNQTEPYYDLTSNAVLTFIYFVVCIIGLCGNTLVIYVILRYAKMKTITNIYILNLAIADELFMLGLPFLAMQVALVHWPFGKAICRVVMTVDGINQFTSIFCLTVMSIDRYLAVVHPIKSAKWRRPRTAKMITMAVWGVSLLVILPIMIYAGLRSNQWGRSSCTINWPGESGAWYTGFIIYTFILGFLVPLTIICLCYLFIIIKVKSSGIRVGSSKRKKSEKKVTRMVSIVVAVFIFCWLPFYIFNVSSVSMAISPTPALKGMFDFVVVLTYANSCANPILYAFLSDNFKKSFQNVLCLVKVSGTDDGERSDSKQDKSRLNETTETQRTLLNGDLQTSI

“[^68Ga][Ga-1,4,7,10-tetraazacyclododecane-1,4,7,10-tetraacetic acid^0,Tyr^3]-octreotide [[^68Ga]Ga-DOTA-TOC]”: the IC50 in the data set with SST5 [1] was 73 ± 21 nM; in the data set on SST2, 2.5 ± 0.5 nM.

In the case of `CC(C)[C@@H]1NC(=O)[C@H](CCCCN)NC(=O)[C@@H](Cc2c[nH]c3ccccc23)NC(=O)[C@H](Cc2ccc(O)c(I)c2)NC(=O)[C@@H](NC(=O)[C@@H](Cc2ccc(N)c(I)c2)NC(=O)CN2CCN(CC(=O)O)CCN(CC(=O)O)CCN(CC(=O)O)CC2)CSSC[C@@H](C(=O)N[C@H](C(N)=O)[C@@H](C)O)NC1=O` [^natGa-DOTA-ST8950, metal not drawn], the IC50 on human SST2 [2] was 0.32 nM. For the same compound, the “Factor of reduction of agonistic potency for SST2 vs ST8950” value at human SST2 [3] (after ^natGa-DOTA conjugation) is reported as 1.6. Further, on human SST2 [3], the EC50 was determined as 0.46 nM.

As to `C[C@@H](O)[C@H](NC(=O)[C@@H]1CSSC[C@H](NC(=O)[C@@H](Cc2ccccc2)NC(=O)CN2CCN(CC(=O)O)CCN(CC(=O)O)CCN(CC(=O)O)CC2)C(=O)N[C@@H](Cc2ccc(O)cc2)C(=O)N[C@H](Cc2c[nH]c3ccccc23)C(=O)N[C@@H](CCCCN)C(=O)N[C@@H]([C@@H](C)O)C(=O)N1)C(=O)O` [^natGa-DOTA-TATE, metal not drawn], on human SST5 [4], the EC50 is 39 nM. Besides, the IC50 with SST5 [5] is > 1000 nM.

For the compound `C[C@@H](O)[C@@H]1NC(=O)[C@H](CCCCN)NC(=O)[C@@H](Cc2c[nH]c3ccccc23)NC(=O)[C@H](Cc2cccc3ccccc23)NC(=O)[C@@H](NC(=O)[C@@H](Cc2ccccc2)NC(=O)CN2CCN(CC(=O)O)CCN(CC(=O)O)CCN(CC(=O)O)CC2)CSSC[C@@H](C(=O)N[C@H](CO)[C@@H](C)O)NC1=O` [[^67Ga]Ga-DOTA-NOC, metal not drawn], the “log D” value in data set [6] is “− 1.6 ± 0.1”.

As to “[^68Ga][Ga-DOTA^0,Tyr^3,Thr^8]-octreotate [[^68Ga]Ga-DOTA-TATE]”, in [7], the Blood values is given as 0.4 ± 0.0 %IA/g and the Liver uptake is reported as 0.4 ± 0.2 %IA/g. Besides, the IC50 with SST2 was 0.2 ± 0.04 nM.

For the compound `C[C@@H](O)[C@H](NC(=O)[C@@H]1CSSC[C@H](NC(=O)[C@@H](Cc2ccccc2)NC(=O)CN2CCN(CC(=O)O)CCN(CC(=O)O)CCN(CC(=O)O)CC2)C(=O)N[C@@H](Cc2ccc(O)cc2)C(=O)N[C@H](Cc2c[nH]c3ccccc23)C(=O)N[C@@H](CCCCN)C(=O)N[C@@H]([C@@H](C)O)C(=O)N1)C(=O)O` [[^67Ga]Ga-DOTA-TATE, metal not drawn], the “log D” value in data set [6] is “− 3.0 ± 0.1”.

As to `CC(C)[C@@H]1NC(=O)[C@H](CCCCN)NC(=O)[C@@H](Cc2c[nH]c3ccccc23)NC(=O)[C@H](Cc2ccc(O)c(I)c2)NC(=O)[C@@H](NC(=O)[C@@H](Cc2ccc(N)c(I)c2)NC(=O)CN2CCN(CC(=O)O)CCN(CC(=O)O)CCN(CC(=O)O)CC2)CSSC[C@@H](C(=O)N[C@H](C(N)=O)[C@@H](C)O)NC1=O` [[^67Ga]Ga-DOTA-ST8950, metal not drawn], in data set [6], the “log D” value is reported as “− 1.0 ± 0.1”.

In the case of `CC(C)[C@@H]1NC(=O)[C@H](CCCCN)NC(=O)[C@@H](Cc2c[nH]c3ccccc23)NC(=O)[C@H](Cc2ccc(O)cc2)NC(=O)[C@@H](NC(=O)[C@@H](Cc2ccc(N)cc2)NC(=O)CN2CCN(CC(=O)O)CCN(CC(=O)O)CCN(CC(=O)O)CC2)CSSC[C@@H](C(=O)N[C@H](C(N)=O)[C@@H](C)O)NC1=O` [^natGa-DOTA-ST8951, metal not drawn], at human SST2 [2], the IC50 came out at 7.5 nM. For the same compound, at human SST2 [3], the EC50 was determined as 9.8 nM.

Take `CC(C)[C@@H]1NC(=O)[C@H](CCCCN)NC(=O)[C@@H](Cc2c[nH]c3ccccc23)NC(=O)[C@H](Cc2ccc(O)c(I)c2)NC(=O)[C@@H](NC(=O)[C@@H](Cc2ccc(N)c(I)c2)NC(=O)CN2CCN(CC(=O)O)CCN(CC(=O)O)CCN(CC(=O)O)CC2)CSSC[C@@H](C(=O)N[C@H](C(N)=O)[C@@H](C)O)NC1=O` [[^68Ga]Ga-DOTA-ST8950, metal not drawn]: the tissue uptake at 1 h in “in vivo [8]” (setting [11]) amounted to 2.5 ± 0.2 %ID/g; in the data set “in vivo [8]” (setting [12]) it was 6.2 ± 0.6 %ID/g; in “in vivo [8]” (athymic Nude-Foxn1^nu/Foxn1^+, SST(-) tumor uptake) it was 1.4 ± 0.5 %ID/g; in “in vivo [8]” (setting [13]), 7.4 ± 1.9 %ID/g; in the data set “in vivo [9]” (setting [11]), 2.4 ± 1.3 %ID/g; in the data set “in vivo [9]” (setting [12]), 6.4 ± 1.9 %ID/g. Further, the tissue uptake at 1 h in the data set “in vivo [9]” (setting [21]) is 8.5 ± 4.5 %ID/g; in the data set “in vivo [9]” (setting [22]), 8.5 ± 1.9 %ID/g; in the data set “in vivo [9]” (setting [23]), 26 ± 8 %ID/g; in the data set “in vivo [9]” (setting [24]) it was 15 ± 6 %ID/g. In addition, the tissue uptake at 2 h in “in vivo [9]” (setting [14]) was determined as 4.3 ± 1 %ID/g; in “in vivo [9]” (setting [15]), 0.8 ± 0.2 %ID/g; in “in vivo [9]” (setting [16]), 2.4 ± 0.8 %ID/g; in the data set “in vivo [9]” (setting [17]), 0.8 ± 0.2 %ID/g; in “in vivo [9]” (setting [11]), 2.7 ± 0.3 %ID/g; in “in vivo [9]” (setting [18]), 14 ± 2 %ID/g. The tissue uptake at 2 h in the data set “in vivo [9]” (setting [12]) came to 7.3 ± 1.5 %ID/g; in the data set “in vivo [9]” (setting [19]), 3.5 ± 0.7 %ID/g; in the data set “in vivo [9]” (setting [20]), 0.6 ± 0.1 %ID/g; in the data set “in vivo [9]” (setting [22]) it was 7.8 ± 1.2 %ID/g; in “in vivo [9]” (setting [23]), 32 ± 7 %ID/g; in the data set “in vivo [9]” (setting [24]) it was 14 ± 3 %ID/g. Besides, the tissue uptake at 2 h in the data set “in vivo [9]” (setting [25]) is 8.4 ± 1.2 %ID/g; in “in vivo [9]” (setting [13]), 8.6 ± 2.1 %ID/g; in “in vivo [9]” (setting [26]) it was 1.5 ± 0.3 %ID/g.

Regarding `C[C@@H](O)[C@@H]1NC(=O)[C@H](CCCCN)NC(=O)[C@@H](Cc2c[nH]c3ccccc23)NC(=O)[C@H](Cc2cccc3ccccc23)NC(=O)[C@@H](NC(=O)[C@@H](Cc2ccccc2)NC(=O)CN2CCN(CC(=O)O)CCN(CC(=O)O)CCN(CC(=O)O)CC2)CSSC[C@@H](C(=O)N[C@H](CO)[C@@H](C)O)NC1=O` [^natGa-DOTA-NOC, metal not drawn, reference compound], the IC50 on human SST2 [2] turned out to be 0.7 nM; on human SST5 [10] it was 3.4 nM. The EC50 on human SST5 [4] turned out to be 3.3 nM; on human SST2 [3] it was 0.59 nM.

As for `C[C@@H](O)[C@@H]1NC(=O)[C@H](CCCCN)NC(=O)[C@@H](Cc2c[nH]c3ccccc23)NC(=O)[C@H](Cc2cccc3ccccc23)NC(=O)[C@@H](NC(=O)[C@@H](Cc2ccccc2)NC(=O)CN2CCN(CC(=O)O)CCN(CC(=O)O)CCN(CC(=O)O)CC2)CSSC[C@@H](C(=O)N[C@H](CO)[C@@H](C)O)NC1=O` [[^68Ga]Ga-DOTA-NOC, [^68Ga][Ga-DOTA^0,1-Nal^3]-octreotide, metal not drawn, reference compound], the tissue uptake at 1 h amounted to 4.6 ± 1 %ID/g in the data set “in vivo [9]” (setting [14]); 1.1 ± 0.4 %ID/g in the data set “in vivo [9]” (setting [15]); 1.7 ± 0.8 %ID/g in the data set “in vivo [9]” (setting [16]); 0.7 ± 0.2 %ID/g in the data set “in vivo [9]” (setting [17]); 3.3 ± 0.7 %ID/g in the data set “in vivo [9]” (setting [11]); 9.8 ± 3.2 %ID/g in “in vivo [9]” (setting [18]). The tissue uptake at 1 h worked out at 3.3 ± 1.4 %ID/g in “in vivo [9]” (setting [19]); 0.5 ± 0.2 %ID/g in “in vivo [9]” (setting [20]); 16 ± 3 %ID/g in “in vivo [9]” (setting [21]); 8.2 ± 2.8 %ID/g in “in vivo [9]” (setting [22]); 30 ± 8 %ID/g in “in vivo [9]” (setting [23]); 12 ± 5 %ID/g in the data set “in vivo [9]” (setting [24]). In addition, the tissue uptake at 1 h in “in vivo [9]” (setting [25]) was found to be 12 ± 2 %ID/g; in “in vivo [9]” (setting [26]), 0.8 ± 0.2 %ID/g.
